Reference: patent publication US20220090060A1 (Regeneron, published 2022)

Biological target: T1, hCD22.mmh (human, UniProt P20273 20-687)
T1 construct: Analyte of the Biacore assay; also called Recombinant CD22; human CD22
T1 sequence (looked up): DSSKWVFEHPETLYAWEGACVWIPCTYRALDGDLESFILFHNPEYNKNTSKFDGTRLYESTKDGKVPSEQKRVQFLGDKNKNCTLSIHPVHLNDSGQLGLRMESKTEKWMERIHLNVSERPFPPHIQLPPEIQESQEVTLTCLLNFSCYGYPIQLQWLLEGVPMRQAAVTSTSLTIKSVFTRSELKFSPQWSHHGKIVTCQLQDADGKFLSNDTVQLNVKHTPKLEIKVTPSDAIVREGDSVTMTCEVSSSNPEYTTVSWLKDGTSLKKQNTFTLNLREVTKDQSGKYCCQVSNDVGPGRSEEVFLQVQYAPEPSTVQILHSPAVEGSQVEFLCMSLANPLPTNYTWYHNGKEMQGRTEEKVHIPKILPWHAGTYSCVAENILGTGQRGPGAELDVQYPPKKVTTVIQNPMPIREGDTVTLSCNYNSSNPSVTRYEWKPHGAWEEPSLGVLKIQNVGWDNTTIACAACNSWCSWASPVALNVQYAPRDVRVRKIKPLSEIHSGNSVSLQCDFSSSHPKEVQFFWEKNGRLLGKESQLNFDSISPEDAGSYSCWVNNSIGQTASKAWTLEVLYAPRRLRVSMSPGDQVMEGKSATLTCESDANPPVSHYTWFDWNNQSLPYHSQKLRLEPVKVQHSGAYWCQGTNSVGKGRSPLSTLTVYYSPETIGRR
Assay: SPR (Biacore), mAb captured from CHO supernatant on anti-human Fc, 25C pH 7.4

- Kd: 160 nM
- koff: 0.0117 s⁻¹
- kon: 73200 M⁻¹ s⁻¹
- t½: 1 min
B1: mAb23 (antibody, V domains shown)
VH: EVQLLESGGGLVQPGGSLRLSCAASGFTFSSYAMTWVRQAPGKGLEWVSTISGSGVSTYSADSVKGRFTISRDNSKNTLYLQMNSLRAEDTAVYYCALHWELLDAFDIWGQGTMVTVSS
VL: EIVLTQSPGTLSLSPGERATLSCRASQSISYNYLAWYQQKPGQAPRLLIYGASSRASGISDRFSGSGSGTDFTLTISRLEPEDFVVYYCQQYGSSPLTFGGGTKVEVK
